According to US20190170753A1 (ICAHN SCHOOL OF MEDICINE AT MOUNT SINAI, published 2019):

Experiments:
Test in all cases: peptide EIA, 2 ug/mL IgG;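 note: purified mouse IgG binding to individually well-coated synthetic peptides, detected with peroxidase anti-mouse IgG Fc and o-phenylenediamine, IgG incubated at least 1 h at room temperature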
[1] = biological target: T1, HCV core peptide 62 (hepatitis C virus, N-terminal biotin; C-terminal amide)
T1 construct: range 123-137
Description: (§1) The coated plates were kept dry in a sealed foil pouch and stored at <10 degrees C. until ready for use. A peptide coated plate for each test antibody was blocked using 3% BSA in PBS with 0.5% Tween 20. The blocked plates were washed with distilled water and a 2 ug/mL solution of purified IgG from each test sample diluted in BSA block solution was added to each peptide coated well of the blocked plate and allowed to incubate at room temperature for at least one hour. Following incubation the plates were washed with distilled water. A 200 ng/mL solution of peroxidase labeled F(ab′)2 fragment goat anti-mouse IgG Fc fragment specific (Jackson Immunoresearch) in BSA block solution was added to all wells and incubated at room temperature for 30 minutes. The plates were washed with distilled water and o-phenylenediamine substrate was used as the chromagen to generate signal. Plates were read at 492 nm and the results were analyzed.

[2] = biological target: HCV core peptide 45 (hepatitis C virus, N-terminal biotin; C-terminal amide)
Description: as §1

[3] = biological target: T2, HCV core peptide 35 (hepatitis C virus, N-terminal biotin; C-terminal amide)
T2 construct: range 69-83
Description: as §1

[4] = biological target: T3, HCV core peptide 55 (hepatitis C virus, HELM PEPTIDE1{[O=C1N[C@H]2[C@H](CS[C@H]2CCCCC(=O)[*:2])N1].S.G.S.G.P.T.D.P.R.R.R.S.R.N.L.G.K.V.I.[am]}$$$$V2.0; SMILES …)
T3 construct: also called aa 109-123
T3 peptide: SGSGPTDPRRRSRNLGKVI
Description: as §1

[5] = biological target: T4, HCV core peptide 49 (hepatitis C virus, HELM PEPTIDE1{[O=C1N[C@H]2[C@H](CS[C@H]2CCCCC(=O)[*:2])N1].S.G.S.G.L.L.S.P.R.G.S.R.P.S.W.G.P.T.D.[am]}$$$$V2.0; SMILES …)
T4 peptide: SGSGLLSPRGSRPSWGPTD
Description: as §1

[6] = biological target: T5, HCV core peptide 10 (hepatitis C virus, N-terminal biotin; C-terminal amide)
T5 construct: range 19-33
Description: as §1

[7] = biological target: T6, HCV core peptide 9 (hepatitis C virus, N-terminal biotin; C-terminal amide)
T6 construct: range 17-31
Description: as §1

[8] = biological target: T7, HCV core peptide 37 (hepatitis C virus, N-terminal biotin; C-terminal amide)
T7 construct: range 73-87
Description: as §1

[9] = biological target: T8, HCV core peptide 38 (hepatitis C virus, N-terminal biotin; C-terminal amide)
T8 construct: range 75-89
Description: as §1

[10] = biological target: T9, HCV core peptide 28 (hepatitis C virus, N-terminal biotin; C-terminal amide)
T9 construct: range 55-69
Description: as §1

[11] = biological target: HCV core peptide 76 (hepatitis C virus, N-terminal biotin; C-terminal amide)
Description: as §1

[12] = biological target: HCV core peptide 88 (hepatitis C virus, N-terminal biotin; C-terminal amide)
Description: as §1

[13] = biological target: HCV core peptide 57 (hepatitis C virus, N-terminal biotin; C-terminal amide)
Description: as §1

[14] = biological target: T10, HCV core peptide 31 (hepatitis C virus, N-terminal biotin; C-terminal amide)
T10 construct: range 61-75
Description: as §1

[15] = biological target: HCV core peptide 87 (hepatitis C virus, N-terminal biotin; C-terminal amide)
Description: as §1

[16] = biological target: T11, HCV core peptide 40 (hepatitis C virus, N-terminal biotin; C-terminal amide)
T11 construct: range 79-93
Description: as §1

[17] = biological target: T12, HCV core peptide 79 (hepatitis C virus, N-terminal biotin; C-terminal amide)
T12 construct: range 157-171
Description: as §1

[18] = biological target: T13, HCV core peptide 48 (hepatitis C virus, HELM PEPTIDE1{[O=C1N[C@H]2[C@H](CS[C@H]2CCCCC(=O)[*:2])N1].S.G.S.G.G.W.L.L.S.P.R.G.S.R.P.S.W.G.P.[am]}$$$$V2.0; SMILES …)
T13 construct: also called aa 95-109
T13 peptide: SGSGGWLLSPRGSRPSWGP
Description: as §1

[19] = biological target: T14, HCV core peptide 36 (hepatitis C virus, N-terminal biotin; C-terminal amide)
T14 construct: range 71-85
Description: as §1

[20] = biological target: HCV core peptide 77 (hepatitis C virus, N-terminal biotin; C-terminal amide)
Description: as §1

[21] = biological target: HCV core peptide 64 (hepatitis C virus, N-terminal biotin; C-terminal amide)
Description: as §1

[22] = biological target: T15, HCV core peptide 50 (hepatitis C virus, HELM PEPTIDE1{[O=C1N[C@H]2[C@H](CS[C@H]2CCCCC(=O)[*:2])N1].S.G.S.G.S.P.R.G.S.R.P.S.W.G.P.T.D.P.R.[am]}$$$$V2.0; SMILES …)
T15 construct: also called aa 99-113
T15 peptide: SGSGSPRGSRPSWGPTDPR
Description: as §1

[23] = biological target: T16, HCV core peptide 75 (hepatitis C virus, N-terminal biotin; C-terminal amide)
T16 construct: range 149-163
Description: as §1

[24] = biological target: HCV core peptide 71 (hepatitis C virus, N-terminal biotin; C-terminal amide)
Description: as §1

[25] = biological target: HCV core peptide 74 (hepatitis C virus, N-terminal biotin; C-terminal amide)
Description: as §1

[26] = biological target: T17, HCV core peptide 17 (hepatitis C virus, N-terminal biotin; C-terminal amide)
T17 construct: range 33-47
Description: as §1

[27] = biological target: T18, HCV core peptide 13 (hepatitis C virus, N-terminal biotin; C-terminal amide)
T18 construct: range 25-39
Description: as §1

[28] = biological target: T19, HCV core peptide 27 (hepatitis C virus, N-terminal biotin; C-terminal amide)
T19 construct: range 53-67
Description: as §1

[29] = biological target: T20, HCV core peptide 24 (hepatitis C virus, N-terminal biotin; C-terminal amide)
T20 construct: range 47-61
Description: as §1

[30] = biological target: T21, HCV core peptide 4 (hepatitis C virus, N-terminal biotin; C-terminal amide)
T21 construct: range 7-21
Description: as §1

B1: Neo4 mouse monoclonal antibody (antibody, V domains shown)
VH: QIQLKESGPAVIKPSQSLSLTCIVSGFSITSSVYCWQWIRQPPGKGLEWMGRICYDGSVDYSPSITSRGTISRDTSLNKVFFQLSSVTNEDTAMYYCSRENHIDYYDTTYPSFDVWGAGTTVTVSS
VL: DIVLTQSPASLIVSLGQRATISCRASKSVNEYGYTYMHWYQQKPGLPPKLLIYLASNLDSGVPARFSGSGSGTDFTLNIHPVEEEDAATYYCQHSRELPYTFGGGTKLEIKR
notes: Mouse hybridoma antibody, isotype IgG1, purified with Protein G; also called HCV Neo4
Which results are given for B1?
OD (A492 nm) [1]: 0.05 OD; OD (A492 nm) [2]: 0.04 OD; OD (A492 nm) [3]: 0.04 OD; OD (A492 nm) [4]: 0.97 OD; OD (A492 nm) [5]: 0.05 OD; OD (A492 nm) [6]: 0.05 OD; OD (A492 nm) [7]: 0.05 OD; OD (A492 nm) [8]: 0.04 OD; OD (A492 nm) [9]: 0.05 OD; OD (A492 nm) [10]: 0.04 OD; OD (A492 nm) [11]: 0.05 OD; OD (A492 nm) [12]: 0.05 OD; OD (A492 nm) [13]: 0.05 OD; OD (A492 nm) [14]: 0.05 OD; OD (A492 nm) [15]: 0.05 OD; OD (A492 nm) [16]: 0.05 OD; OD (A492 nm) [17]: 0.05 OD; OD (A492 nm) [18]: 0.04 OD; OD (A492 nm) [19]: 0.05 OD; OD (A492 nm) [20]: 0.05 OD; OD (A492 nm) [21]: 0.04 OD; OD (A492 nm) [22]: 1.03 OD; OD (A492 nm) [23]: 0.1 OD; OD (A492 nm) [24]: 0.05 OD; OD (A492 nm) [25]: 0.05 OD; OD (A492 nm) [26]: 0.04 OD; OD (A492 nm) [27]: 0.05 OD; OD (A492 nm) [28]: 0.04 OD; OD (A492 nm) [29]: 0.05 OD; OD (A492 nm) [30]: 0.06 OD
